Laboratory results as given in the supplement of paper PMC9112550, “Optimization of the antimicrobial peptide Bac7 by deep mutational scanning” (BMC Biology, 2022).

Test system: Escherichia coli TOP10
Assay: shrunken log2 fold change of peptide-encoding DNA abundance (4.5 h post-induction vs induction); higher = less antimicrobial activity (less host growth inhibition)
Details: time post-induction: 4.5 h; library: site-saturation at positions 5, 18, 19, 20
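Also: peptides expressed intracellularly from a pBAD plasmid library in pooled LB shake-flask culture, induced with 0.3% L-arabinose, DNA abundance read by NGS, three biological replicates, DESeq2 with apeglm shrinkage.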

Row | Sequence | shrunken log2 fold change
1 | RRIRGRPPRLPRPRPRPDKIPRP | 0.813
2 | RRIRQRPPRLPRPRPRPFIWPRP | -0.357
3 | RRIRGRPPRLPRPRPRPVMNPRP | 0.434
4 | RRIRFRPPRLPRPRPRPRSIPRP | -0.256
5 | RRIRWRPPRLPRPRPRPIIRPRP | -0.00231
6 | RRIRYRPPRLPRPRPRPVHGPRP | -0.014
7 | RRIRGRPPRLPRPRPRPGPEPRP | 0.954
8 | RRIRFRPPRLPRPRPRPGASPRP | 0.109
9 | RRIRLRPPRLPRPRPRPTKAPRP | 0.0258
10 | RRIRLRPPRLPRPRPRPTNKPRP | -0.264
11 | RRIRNRPPRLPRPRPRPVTYPRP | -0.168
12 | RRIRRRPPRLPRPRPRPLPNPRP | -0.0597
13 | RRIRTRPPRLPRPRPRPQKIPRP | -0.123
14 | RRIRKRPPRLPRPRPRPKNGPRP | 0.173
15 | RRIRERPPRLPRPRPRPKLKPRP | -0.387
16 | RRIRLRPPRLPRPRPRPQGLPRP | -0.0348
17 | RRIRFRPPRLPRPRPRPPEIPRP | -0.204
18 | RRIRVRPPRLPRPRPRPCCLPRP | -0.241
19 | RRIRNRPPRLPRPRPRPGPIPRP | 0.058
20 | RRIRWRPPRLPRPRPRPIGEPRP | 0.0833
21 | RRIRGRPPRLPRPRPRPTAQPRP | 1.35
22 | RRIRCRPPRLPRPRPRPNEKPRP | -0.00225
23 | RRIRFRPPRLPRPRPRPYNQPRP | -0.881
24 | RRIRERPPRLPRPRPRPGQMPRP | 0.0413
25 | RRIRPRPPRLPRPRPRPCMCPRP | -0.0305

Row | Sequence | shrunken log2 fold change
26 | RRIRPRPPRLPRPRPRPWSTPRP | -0.172
27 | RRIRGRPPRLPRPRPRPQHNPRP | -0.186
28 | RRIRWRPPRLPRPRPRPTYTPRP | -0.136
29 | RRIRMRPPRLPRPRPRPMSTPRP | 0.0207
30 | RRIRRRPPRLPRPRPRPTYVPRP | 0.00831
31 | RRIRFRPPRLPRPRPRPGRQPRP | 0.179
32 | RRIRMRPPRLPRPRPRPDCGPRP | -0.167
33 | RRIRRRPPRLPRPRPRPVNLPRP | 0.219
34 | RRIRGRPPRLPRPRPRPKIIPRP | 0.303
35 | RRIRQRPPRLPRPRPRPAWEPRP | 0.245
36 | RRIRPRPPRLPRPRPRPIKTPRP | 0.0751
37 | RRIRMRPPRLPRPRPRPAVVPRP | 0.287
38 | RRIRPRPPRLPRPRPRPPLMPRP | 0.199
39 | RRIRCRPPRLPRPRPRPQIFPRP | 2.2
40 | RRIRGRPPRLPRPRPRPALQPRP | 0.333
41 | RRIRWRPPRLPRPRPRPIVPPRP | 0.138
42 | RRIRVRPPRLPRPRPRPVCNPRP | -0.0396
43 | RRIRQRPPRLPRPRPRPKTHPRP | -0.389
44 | RRIRERPPRLPRPRPRPKYQPRP | -0.601
45 | RRIRWRPPRLPRPRPRPRFYPRP | -0.00432
46 | RRIRWRPPRLPRPRPRPVTGPRP | 0.183
47 | RRIRHRPPRLPRPRPRPMSQPRP | -0.151
48 | RRIRTRPPRLPRPRPRPHNWPRP | 0.0661
49 | RRIRERPPRLPRPRPRPGAGPRP | 0.395
50 | RRIRGRPPRLPRPRPRPHPGPRP | 0.421
